This is an account of results in article PMC10040528, “A [4Fe-4S] cluster resides at the active center of phosphomevalonate dehydratase, a key enzyme in the archaeal modified mevalonate pathway” (Frontiers in Microbiology, 2023).

Substrate in series [1]: C/C(=C\C(=O)O)CCOP(=O)(O)O
Briefly: coupled colorimetric assay (MVA5P kinase/pyruvate kinase/pyruvate oxidase/peroxidase, resorufin), Michaelis-Menten fit. Format: biochemical, Aeropyrum pernix. The note with it: reverse reaction (hydration of tAHMP to MVA5P), 70 mM Tris-HCl pH 7.0, 70 °C, anaerobic, reconstructed His-tagged enzyme. An excerpt:
coupled colorimetric assay (MVA5P kinase/pyruvate kinase/pyruvate oxidase/peroxidase, resorufin), Michaelis-Menten fit on […]

In series [2] the target is T1, Aeropyrum pernix phosphomevalonate dehydratase (ApPMDh) large subunit Ape_2087.1, polyhistidine-tagged (Aeropyrum pernix, UniProt Q9YA51 1-402).
T1 construct: large subunit Ape_2087.1 of phosphomevalonate dehydratase (type IIb aconitase X), Aeropyrum pernix; also called (His)6-Ape2087.1; large subunit of ApPMDh; source: E. coli Rosetta2 (DE3), pET-HisApPMDh, co-expressed with Ape_2089; heat-treated cell extract, Histrap FF; not shown: polyhistidine ((His)6), N-terminal, kept
T1 sequence (looked up): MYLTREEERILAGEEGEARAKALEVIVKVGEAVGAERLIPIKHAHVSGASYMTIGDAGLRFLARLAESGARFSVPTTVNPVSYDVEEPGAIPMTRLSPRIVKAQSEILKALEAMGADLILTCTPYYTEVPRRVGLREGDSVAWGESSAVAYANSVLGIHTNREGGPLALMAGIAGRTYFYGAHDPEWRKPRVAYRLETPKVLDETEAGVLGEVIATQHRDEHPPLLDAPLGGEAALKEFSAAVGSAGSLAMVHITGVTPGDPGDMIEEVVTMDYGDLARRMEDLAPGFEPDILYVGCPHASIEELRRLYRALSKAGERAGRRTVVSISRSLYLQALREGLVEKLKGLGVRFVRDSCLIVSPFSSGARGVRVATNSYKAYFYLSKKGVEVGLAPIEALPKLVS
Briefly: pull-down; polyhistidine-tagged large subunit co-expressed with untagged small subunit in E. coli; heat-treated (60°C, 30 min) cell extract on Histrap FF, anaerobic; 20 mM sodium phosphate pH 7.4, 500 mM NaCl, 20 mM imidazole; eluted with 150 mM imidazole; subunit ratio from 15% SDS-PAGE and ImageJ. The following applies: partners not purified.

Series [3] has as its target T1, Aeropyrum pernix phosphomevalonate …. In words: pull-down; as a1, but from a mixture of about equal amounts of cells co-expressing both subunits and cells expressing only untagged Ape_2089 (excess small subunit supplied); subunit ratio from SDS-PAGE and ImageJ. The note with it: partners not purified.

B1: ApPMDh (Aeropyrum pernix phosphomevalonate dehydratase) (Aeropyrum pernix K1) (protein)
chain 1: MYLTREEERILAGEEGEARAKALEVIVKVGEAVGAERLIPIKHAHVSGASYMTIGDAGLRFLARLAESGARFSVPTTVNPVSYDVEEPGAIPMTRLSPRIVKAQSEILKALEAMGADLILTCTPYYTEVPRRVGLREGDSVAWGESSAVAYANSVLGIHTNREGGPLALMAGIAGRTYFYGAHDPEWRKPRVAYRLETPKVLDETEAGVLGEVIATQHRDEHPPLLDAPLGGEAALKEFSAAVGSAGSLAMVHITGVTPGDPGDMIEEVVTMDYGDLARRMEDLAPGFEPDILYVGCPHASIEELRRLYRALSKAGERAGRRTVVSISRSLYLQALREGLVEKLKGLGVRFVRDSCLIVSPFSSGARGVRVATNSYKAYFYLSKKGVEVGLAPIEALPKLVS
chain 2: MEVLRYRSRPIVGGEAEGPAVVIDSLSFYGEVDPETGVTSGGKPLAGRVAAIRRSRGSTVGSYVIYALKENGVAPLAILMERAEPIVIAGCVLAGIPLYDGLPPEFFERVRDGYRVRVHSDGLVEVLGPGQP
notes: N-terminal His6 tag with HRV3C site on large subunit, small subunit untagged; co-expressed in E. coli Rosetta2(DE3); 1:1 heteromeric complex; tag kept for kinetics, cut for EPR and iron assay; Fe-S cluster reconstituted anaerobically
The Km is the concentration of substrate that gives half-maximal velocity. As a reminder, the kcat is the number of substrate molecules converted per active site and unit of time at saturation. As to B1, in series [1], the Km was 18.3 µM and the kcat worked out at 15.2 s⁻¹.

B2: Aeropyrum pernix phosphomevalonate dehydratase (ApPMDh) small subunit Ape_2089, untagged (natural protein, UniProt Q9YA49 1-132, looked up)
chain: MEVLRYRSRPIVGGEAEGPAVVIDSLSFYGEVDPETGVTSGGKPLAGRVAAIRRSRGSTVGSYVIYALKENGVAPLAILMERAEPIVIAGCVLAGIPLYDGLPPEFFERVRDGYRVRVHSDGLVEVLGPGQP
notes: small subunit Ape_2089 of phosphomevalonate dehydratase (type IIb aconitase X), Aeropyrum pernix; also called tag-free Ape_2089; small subunit of ApPMDh; source: E. coli Rosetta2 (DE3), co-expressed from pET-HisApPMDh (and expressed alone from pET-ApPMDh-S); heat-treated cell extract
Turning to B2, the results for the “stoichiometry N” value in series [2] and in series [3] were 1 small subunit per large subunit and ~1 small subunit per large subunit, respectively.
